From patent publication US20260250420A1 (SICHUAN KELUN BIOTECH BIOPHARMACEUTICAL, published 2026)

Legend:
[1] = molecular target: T1, monkey PTK7 protein (extracellular sequence of monkey PTK7 with C-terminal 6×His tag) (monkey); experiment: ELISA, coated monkey PTK7 protein 1 µg/ml
T1 chain: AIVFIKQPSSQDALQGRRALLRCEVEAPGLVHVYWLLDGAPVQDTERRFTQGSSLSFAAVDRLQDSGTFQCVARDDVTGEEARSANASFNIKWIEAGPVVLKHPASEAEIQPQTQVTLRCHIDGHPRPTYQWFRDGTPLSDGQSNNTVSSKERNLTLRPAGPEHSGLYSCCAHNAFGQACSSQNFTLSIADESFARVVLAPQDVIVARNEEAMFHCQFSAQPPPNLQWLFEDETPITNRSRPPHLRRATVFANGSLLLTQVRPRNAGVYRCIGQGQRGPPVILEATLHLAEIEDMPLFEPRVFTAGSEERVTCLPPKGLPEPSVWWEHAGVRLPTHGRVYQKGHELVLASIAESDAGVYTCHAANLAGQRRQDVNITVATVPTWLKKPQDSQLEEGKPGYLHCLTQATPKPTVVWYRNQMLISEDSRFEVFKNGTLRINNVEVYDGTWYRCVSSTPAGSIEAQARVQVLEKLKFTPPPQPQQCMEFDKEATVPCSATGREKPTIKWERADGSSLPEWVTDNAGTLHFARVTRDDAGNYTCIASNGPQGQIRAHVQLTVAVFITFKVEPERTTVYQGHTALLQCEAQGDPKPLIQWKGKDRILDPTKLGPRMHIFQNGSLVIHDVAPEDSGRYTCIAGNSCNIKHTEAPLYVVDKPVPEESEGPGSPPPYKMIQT
Description: (§1) Original data was imported into software for nonlinear curve fitting, and EC₅₀ of binding of each antibody to human PTK7 and monkey PTK7 was calculated, respectively. As shown in Table 1 and FIGS. 1A-1B, the screened antibodies could be bound to the human and monkey PTK7 proteins with affinity higher than that of the control antibody Hu24.

[2] = molecular target: T2, mouse PTK7 protein (extracellular sequence of mouse PTK7 with C-terminal 6×His tag) (mouse, UniProt Q8BKG3 23-696); experiment: BLI (ForteBio), antibody on Protein A sensor
T2 construct: extracellular domain; Expressed transiently in HEK293 cells
T2 sequence: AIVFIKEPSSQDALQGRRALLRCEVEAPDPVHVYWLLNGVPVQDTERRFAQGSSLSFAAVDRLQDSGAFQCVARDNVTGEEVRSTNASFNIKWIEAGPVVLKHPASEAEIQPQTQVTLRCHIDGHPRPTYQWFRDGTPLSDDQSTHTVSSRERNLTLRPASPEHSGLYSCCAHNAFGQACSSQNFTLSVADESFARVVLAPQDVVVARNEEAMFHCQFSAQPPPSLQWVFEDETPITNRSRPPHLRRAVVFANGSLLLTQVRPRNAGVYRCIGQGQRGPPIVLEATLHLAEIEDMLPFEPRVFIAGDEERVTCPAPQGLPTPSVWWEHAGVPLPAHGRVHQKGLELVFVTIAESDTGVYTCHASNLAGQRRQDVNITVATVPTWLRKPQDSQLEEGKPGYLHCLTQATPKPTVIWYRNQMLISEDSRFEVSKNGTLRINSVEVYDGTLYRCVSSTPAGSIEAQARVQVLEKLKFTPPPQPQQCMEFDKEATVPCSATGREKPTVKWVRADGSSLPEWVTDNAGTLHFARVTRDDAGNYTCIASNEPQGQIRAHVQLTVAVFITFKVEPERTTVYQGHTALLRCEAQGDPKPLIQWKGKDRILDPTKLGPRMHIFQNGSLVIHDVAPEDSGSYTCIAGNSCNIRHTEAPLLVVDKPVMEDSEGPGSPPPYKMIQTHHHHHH
From the text: The dynamic affinity of the control Hu24 and candidate antibodies 64A10HZ, 101A6HZ, 4E12HZ and 19C2HZ with human PTK7-His was detected by using ForteBio (Pall life sciences).
(§2) ELISA and ForteBio were adopted to detect binding of the anti-human PTK7 chimeric and humanized antibodies to the monkey, mouse and rat PTK7 proteins.

[3] = molecular target: T3, human Fc receptor protein FcRn (human, UniProt P55899 24-297; P61769 21-119, biotinylated); experiment: BLI (ForteBio), biotinylated receptor on SA sensor, antibody from 5,000 nM, 1:1 global fit
T3 construct: Biotinylated protein captured on SA sensors
From the text: The dynamic affinity of the antibodies 101A6HZ, 101A6HZm and Hu24 with human Fc receptor proteins CD16a, CD32a, CD32b, CD64 and FcRn was detected through ForteBio (Pall life sciences).

[4] = molecular target: T2, mouse PTK7 protein (extracellular …); experiment: ELISA, coated mouse PTK7 protein
Description: as §1, §2

T3 sequence (P55899 24-297 limits assumed, form in doubt, chain 1 of 2): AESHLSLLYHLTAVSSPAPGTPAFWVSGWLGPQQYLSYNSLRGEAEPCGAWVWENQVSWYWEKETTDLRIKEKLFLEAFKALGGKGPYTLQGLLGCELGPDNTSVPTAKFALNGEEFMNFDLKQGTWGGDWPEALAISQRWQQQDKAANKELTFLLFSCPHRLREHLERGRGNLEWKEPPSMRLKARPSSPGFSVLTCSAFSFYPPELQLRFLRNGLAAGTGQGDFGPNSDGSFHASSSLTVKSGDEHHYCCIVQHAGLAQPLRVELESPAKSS
T3 sequence (P61769 21-119 limits assumed, form in doubt, chain 2 of 2): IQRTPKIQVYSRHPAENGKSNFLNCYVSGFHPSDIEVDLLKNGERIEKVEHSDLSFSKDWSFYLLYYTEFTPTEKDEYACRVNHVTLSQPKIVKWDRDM

B1: Hu24 (PTK7 control antibody, taken from Hu24 in the Patent CN201580030255) (antibody)
chain 1: QVQLVQSGPEVKKPGASVKVSCKASGYTFTDYAVHWVRQAPGKRLEWIGVISTYNDYTYNNQDFKGRVTMTRDTSASTAYMELSRLRSEDTAVYYCARGNSYFYALDYWGQGTSVTVSS
chain 2: EIVLTQSPATLSLSPGERATLSCRASESVDSYGKSFMHWYQQKPGQAPRLLIYRASNLESGIPARFSGSGSGTDFTLTISSLEPEDFAVYYCQQSNEDPWTFGGGTKLEIK
[1]
  EC50: 0.0133 µg/mL

B2: 101A6HZ (anti-human PTK7 humanized antibody) (antibody, human IgG1, kappa)
heavy: not shown
light: DIVMTQSPDSLAVSLGERATINCKASQDVGSAVIWYQQKPGQSPKLLIYWASTRHTGVPDRFSGSGSGTDFTLTISSLQAEDVAVYYCQQYSSYPLTFGQGTKLEIKRTVAAPSVFIFPPSDEQLKSGTASVVCLLNNFYPREAKVQWKVDNALQSGNSQESVTEQDSKDSTYSLSSTLTLSKADYEKHKVYACEVTHQGLSSPVTKSFNRGEC
[2]
  binding result: no binding
[3]
  Kd: 11.8 nM

B3: 64A10HZ (anti-human PTK7 humanized antibody) (antibody, human IgG1, kappa, V domains shown)
VH: QVQLQESGPGLVKPSETLSLTCTVSGFSLTSYGVYWVRQPPGKGPEWLGVIWTSGNTNYNPSLKSRLTISKDNSKNQVSLKLSSVTAADTAVYYCVKHDGGNYVGVMNYWGQGTLVTVSS
VL: EIVMTQSPDFQSVTPKEKVTITCRASQSISDYLHWYQQKPDQSPKLLIKYASQSISGVPSRFSGSGSGSDFTLTINSLEAEDAATYYCQNGHSFPPTFGQGTKLEIKR
notes: Human IgG1 heavy chain constant region and human Kappa light chain constant region; expressed in CHO-S cells
[4]
  binding result: no binding
